Reference: US20230000956A1, “COMBINATION THERAPY WITH GLUCARPIDASE WITH METHOTREXATE/RITUXIMAB TO TREAT CNS LYMPHOMA” (MEMORIAL SLOAN KETTERING CANCER CENTER, priority 2019, published 2023)
Entries after “also recorded” stand apart in the source; their conditions may differ. Like-named read-outs stand apart in the source and are kept apart here.

What was measured:
[1] = CSF MTX concentrations following glucarpidase (Example 1); type: in vivo, human; conditions: evaluated in two patients
Procedure: (§1) Cerebrospinal fluid (CSF) was collected throughout treatment. Serum was collected for analysis of anti-glucarpidase antibodies. […] Rituximab was always dosed at 500 mg/m^2.

[2] = CSF MTX and glucarpidase (Example 2)
Procedure: Methods. In a phase I dose-finding study of planned-use glucarpidase following HD-MTX, patients were treated with either MTX at 3 g/m^2, 6 g/m^2, or 8 g/m^2. Glucarpidase was dose-reduced to 1000 U or 2000 U and given 24 hours after MTX. […] MTX levels following glucarpidase were determined via mass spectrometry as immunoassay fails to differentiate MTX from byproducts.

[3] = Serum MTX level after outpatient HD-MTX with glucarpidase (Example 3); type: in vivo; conditions: human, intravenous, outpatient MTX 3.5 g/m^2, glucarpidase 2000 U next day, 7 treatments, 3 patients, all cases, read-out: serum MTX levels at 48 hours
CNSL = conditions: cited from earlier work
[4] = cited from earlier work
[5] = cited from earlier work; remark: listed apart in the source
[6] = Serum MTX levels before and after glucarpidase, mass spectrometry (Example 1)
Procedure: (§2) Patients were enrolled into two cohorts with Cohort A receiving MTX 3 g/m^2 and Cohort B receiving MTX 6 g/m^2. Glucarpidase 2000 U or 1000 U was administered 24 hours following the initiation of MTX infusion. […] In the present Example, rituximab was administered on Day 1, MTX on Day 2, glucarpidase Day 3, followed by an 11-day non-treatment period before the start of the next cycle.

[7] = Adverse events (Example 1); set-up: species or system human; conditions: in vivo
Source text: A cycle is typically 14±7 days.

[8] = system: anti-glucarpidase antibodies; assay: Anti-glucarpidase antibodies in serum (Example 1); type: in vivo, human; conditions: two patients, one result per patient
Procedure: as §1

[9] = type: in vivo, human
[10] = set-up: species or system human; conditions: in vivo
[11] = system: anti-glucarpidase antibodies; set-up: species or system human; conditions: in vivo
[12] = in vivo
Procedure: as §2

[13] = molecular target: T1, glucarpidase enzymatic activity (Pseudomonas sp., UniProt P06621); conditions: serum from four of 22 patients with an antibody response; cited from earlier work
T1 sequence (P06621 23-415): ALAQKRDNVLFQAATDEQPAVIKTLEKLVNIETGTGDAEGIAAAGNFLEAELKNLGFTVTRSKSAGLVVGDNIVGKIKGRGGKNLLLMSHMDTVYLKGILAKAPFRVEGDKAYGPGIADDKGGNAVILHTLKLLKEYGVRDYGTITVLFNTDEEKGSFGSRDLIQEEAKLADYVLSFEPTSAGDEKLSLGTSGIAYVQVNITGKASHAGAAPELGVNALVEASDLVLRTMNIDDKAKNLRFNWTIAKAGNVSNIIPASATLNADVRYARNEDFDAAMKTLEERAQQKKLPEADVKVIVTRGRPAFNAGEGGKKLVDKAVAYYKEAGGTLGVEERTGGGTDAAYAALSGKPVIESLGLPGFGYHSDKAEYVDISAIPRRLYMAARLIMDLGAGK

[14] = in vivo; cited from earlier work
[15] = cited from earlier work; remark: listed apart in the source
[16] = system: anti-glucarpidase antibodies; conditions: in vivo; cited from earlier work
[17] = setting of MTX-related acute kidney injury
[18] = around 24 hours after glucarpidase, 8 doses
[19] = typically around 24 hours after glucarpidase

CN(Cc1cnc2nc(N)nc(N)c2n1)c1ccc(C(=O)N[C@@H](CCC(=O)O)C(=O)O)cc1 [MTX, Methotrexate]
CSF methotrexate concentrations following glucarpidase administration [1]: remained therapeutic
MTX concentrations in CSF (potentially cytotoxic) ([2]; 25 hours following MTX administration (1 hour after glucarpidase)): 10^−6 M
CSF MTX concentrations following glucarpidase (conclusion) ([2]; in vivo): remain at cytotoxic levels
concentration at 48 h [3]: < 100 nM
overall response rates (ORR) (CNSL; PCNSL, upfront setting): up to 74%
survival benefit (CNSL; retrospective analysis of 357 patients, regimens with doses 3 g/m^2): statistically significant survival benefit
blood brain barrier penetration ([4]; high doses (>1.5 g/m^2) as a rapid infusion): penetrates the blood brain barrier
share cleared via renal excretion ([4]; in vivo): 70-90%
adults sustaining acute kidney injury ([5]; HD-MTX): 2-12%
incidence of systemic toxicities (hepatic injury, pneumonitis, bone marrow suppression) ([5]; in vivo): < 10%
patients requiring MTX dose reduction [5, 17]: 14-44%
patients with premature cessation of therapy [5, 17]: 5-8%
median elevation of MTX (transient increase) [6, 18]: 290 nmol/L
range of elevation of MTX (transient increase) [6, 18]: 119 to 516 nmol/L
serum MTX levels within 15 minutes of glucarpidase ([6]; in 23/24 doses): less than 100 nmol/L
doses followed by transient increase in MTX levels above 100 nmol/L [6, 19]: 8 of 24
share of doses followed by transient increase in MTX levels above 100 nmol/L [6, 19]: 33%

B1: glucarpidase: recombinant bacterial enzyme that cleaves serum MTX to inactive metabolites (SEQ ID NO: 1) (protein)
chain: ALAQKRDNVLFQAATDEQPAVIKTLEKLVNIETGTGDAEGIAAAGNFLEAELKNLGFTVTRSKSAGLVVGDNIVGKIKGRGGKNLLLMSHMDTVYLKGILAKAPFRVEGDKAYGPGIADDKGGNAVILHTLKLLKEYGVRDYGTITVLFNTDEEKGSFGSRDLIQEEAKLADYVLSFEPTSAGDEKLSLGTSGIAYVQVNITGKASHAGAAPELGVNALVEASDLVLRTMNIDDKAKNLRFNWTIAKAGNVSNIIPASATLNADVRYARNEDFDAAMKTLEERAQQKKLPEADVKVIVTRGRPAFNAGEGGKKLVDKAVAYYKEAGGTLGVEERTGGGTDAAYAALSGKPVIESLGLPGFGYHSDKAEYVDISAIPRRLYMAARLIMDLGAGK
adverse events associated with glucarpidase administration [7]: no adverse events associated with glucarpidase administration
anti-glucarpidase antibody titer levels [8]: detectable anti-glucarpidase antibodies; also recorded: did not develop any anti-glucarpidase antibodies
reduction in serum MTX levels within 15 minutes ([9]; glucarpidase 1000 U (14 treatments) or 2000 U (36 treatments), following 49/50 doses): ≥ 95%
doses with at least a 95% reduction in serum MTX levels within 15 minutes ([9]; glucarpidase 1000 U or 2000 U): 49/50
decrease in serum MTX levels, remaining dose ([9]; in vivo): 93%
efficacy after repeated doses and antibody formation ([9]; low-dose glucarpidase): remains effective even after repeated doses and despite the formation of anti-glucarpidase antibodies
reduction of MTX levels (conclusion) ([9]; low-dose glucarpidase): > 95%
glucarpidase in the CSF ([2]; in vivo): not detected
grade 3 events [10]: no grade 3 events
grade 4 events [10]: only one grade 4 anaphylactic reaction
patients with anti-glucarpidase antibodies detected [11]: 6 of 8
decrease in serum MTX levels, remaining dose [12]: 93%
inhibition of glucarpidase enzymatic activity in vitro by patient serum [13]: 28-58%
half-life [14]: 6 to 9 h
volume of distribution [14]: 3.6 L
safety and efficacy at approved dose ([15]; 50 units/kg, patients with delayed MTX elimination from renal impairment): safe and efficacious
patients reporting nausea, vomiting, hypotension, paresthesias, flushing, and headache ([15]; in vivo): < 3%
antibody formation post glucarpidase [16]: 37-43%
patients developing antibodies [16]: roughly 17%
doses with at least a 95% reduction in serum MTX levels within 15 minutes ([6]; glucarpidase 2000 U or 1000 U): 23/24
share of doses with at least a 95% reduction in serum MTX levels within 15 minutes ([6]; glucarpidase 2000 U or 1000 U): 96%
reduction in serum MTX levels within 15 minutes of administration ([6]; glucarpidase 2000 U or 1000 U 24 h after MTX 3 or 6 g/m^2, in 23/24 doses): ≥ 95%
effect on serum MTX levels (summary) ([6]; low-dose glucarpidase 24 hours after MTX): rapid reduction in serum MTX levels
